Measurements: the Human Domainome abundance scans (Beltran et al. 2025)
± gives the uncertainty stated by the source.

B1: Apoptosis-associated speck-like protein containing a CARD, residues 114 to 194; numbered along this chain, Q9ULZ3 (parent)
chain: FIDQHRAALIARVTNVEWLLDALYGKVLTDEQYQAVRAEPTNPSKMRKLFSFTPAWNWTCKDLLLQALRESQSYLVEDLER

Variants of: B1
Assay: abundance fitness (aPCA) (normalised: wild type 0, dead -1); higher = more abundant; growth selection in yeast, the domain comes from the species named
Conditions: Homo sapiens

Row | Variant | abundance fitness
1 | FIDQHRAALIARVTNVEWLLDALYGKVLTDEQYQAVRAEPTNPSKMRKLFSFTPAWNWKCKDLLLQALRESQSYLVEDLER [T59K] | 0 ± 0.079
2 | FIDQHRAALIARVTNVEWLLDALYGKVLTDEQYQAVRAEPTNPSKMRKLFSFTPAWNWLCKDLLLQALRESQSYLVEDLER [T59L] | -0.149 ± 0.053
3 | FIDQHRAALIARVTNVEWLLDALYGKVLTDEQYQAVRAEPTNPSKMRKLFSFTPAWNWMCKDLLLQALRESQSYLVEDLER [T59M] | -0.084 ± 0.08
4 | FIDQHRAALIARVTNVEWLLDALYGKVLTDEQYQAVRAEPTNPSKMRKLFSFTPAWNWNCKDLLLQALRESQSYLVEDLER [T59N] | 0.018 ± 0.11
5 | FIDQHRAALIARVTNVEWLLDALYGKVLTDEQYQAVRAEPTNPSKMRKLFSFTPAWNWPCKDLLLQALRESQSYLVEDLER [T59P] | -0.44 ± 0.071
6 | FIDQHRAALIARVTNVEWLLDALYGKVLTDEQYQAVRAEPTNPSKMRKLFSFTPAWNWRCKDLLLQALRESQSYLVEDLER [T59R] | 0.111 ± 0.042
7 | FIDQHRAALIARVTNVEWLLDALYGKVLTDEQYQAVRAEPTNPSKMRKLFSFTPAWNWSCKDLLLQALRESQSYLVEDLER [T59S] | -0.04 ± 0.046
8 | FIDQHRAALIARVTNVEWLLDALYGKVLTDEQYQAVRAEPTNPSKMRKLFSFTPAWNWVCKDLLLQALRESQSYLVEDLER [T59V] | -0.128 ± 0.052
9 | FIDQHRAALIARVTNVEWLLDALYGKVLTDEQYQAVRAEPTNPSKMRKLFSFTPAWNWWCKDLLLQALRESQSYLVEDLER [T59W] | 0.041 ± 0.057
10 | FIDQHRAALIARVTNVEWLLDALYGKVLTDEQYQAVRAEPTNPSKMRKLFSFTPAWNWYCKDLLLQALRESQSYLVEDLER [T59Y] | -0.102 ± 0.1
11 | FIDQHRAALIARVTNVEWLLDALYGKVLTDEQYQAVRAEPTNPSKMRKLFSFTPAWNWTDKDLLLQALRESQSYLVEDLER [C60D] | 0.332 ± 0.12
12 | FIDQHRAALIARVTNVEWLLDALYGKVLTDEQYQAVRAEPTNPSKMRKLFSFTPAWNWTEKDLLLQALRESQSYLVEDLER [C60E] | 0.285 ± 0.064
13 | FIDQHRAALIARVTNVEWLLDALYGKVLTDEQYQAVRAEPTNPSKMRKLFSFTPAWNWTFKDLLLQALRESQSYLVEDLER [C60F] | -0.162 ± 0.058
14 | FIDQHRAALIARVTNVEWLLDALYGKVLTDEQYQAVRAEPTNPSKMRKLFSFTPAWNWTGKDLLLQALRESQSYLVEDLER [C60G] | 0.084 ± 0.045
15 | FIDQHRAALIARVTNVEWLLDALYGKVLTDEQYQAVRAEPTNPSKMRKLFSFTPAWNWTHKDLLLQALRESQSYLVEDLER [C60H] | 0.185 ± 0.13
16 | FIDQHRAALIARVTNVEWLLDALYGKVLTDEQYQAVRAEPTNPSKMRKLFSFTPAWNWTIKDLLLQALRESQSYLVEDLER [C60I] | -0.473 ± 0.15
17 | FIDQHRAALIARVTNVEWLLDALYGKVLTDEQYQAVRAEPTNPSKMRKLFSFTPAWNWTKKDLLLQALRESQSYLVEDLER [C60K] | 0.041 ± 0.11

Row | Variant | abundance fitness
18 | FIDQHRAALIARVTNVEWLLDALYGKVLTDEQYQAVRAEPTNPSKMRKLFSFTPAWNWTLKDLLLQALRESQSYLVEDLER [C60L] | -0.456 ± 0.059
19 | FIDQHRAALIARVTNVEWLLDALYGKVLTDEQYQAVRAEPTNPSKMRKLFSFTPAWNWTMKDLLLQALRESQSYLVEDLER [C60M] | 0.122 ± 0.066
20 | FIDQHRAALIARVTNVEWLLDALYGKVLTDEQYQAVRAEPTNPSKMRKLFSFTPAWNWTPKDLLLQALRESQSYLVEDLER [C60P] | -0.625 ± 0.11
21 | FIDQHRAALIARVTNVEWLLDALYGKVLTDEQYQAVRAEPTNPSKMRKLFSFTPAWNWTQKDLLLQALRESQSYLVEDLER [C60Q] | 0.329 ± 0.068
22 | FIDQHRAALIARVTNVEWLLDALYGKVLTDEQYQAVRAEPTNPSKMRKLFSFTPAWNWTRKDLLLQALRESQSYLVEDLER [C60R] | -0.265 ± 0.047
23 | FIDQHRAALIARVTNVEWLLDALYGKVLTDEQYQAVRAEPTNPSKMRKLFSFTPAWNWTSKDLLLQALRESQSYLVEDLER [C60S] | 0.167 ± 0.045
24 | FIDQHRAALIARVTNVEWLLDALYGKVLTDEQYQAVRAEPTNPSKMRKLFSFTPAWNWTTKDLLLQALRESQSYLVEDLER [C60T] | 0.009 ± 0.051
25 | FIDQHRAALIARVTNVEWLLDALYGKVLTDEQYQAVRAEPTNPSKMRKLFSFTPAWNWTVKDLLLQALRESQSYLVEDLER [C60V] | -0.461 ± 0.059
26 | FIDQHRAALIARVTNVEWLLDALYGKVLTDEQYQAVRAEPTNPSKMRKLFSFTPAWNWTWKDLLLQALRESQSYLVEDLER [C60W] | -0.238 ± 0.071
27 | FIDQHRAALIARVTNVEWLLDALYGKVLTDEQYQAVRAEPTNPSKMRKLFSFTPAWNWTCADLLLQALRESQSYLVEDLER [K61A] | -0.332 ± 0.057
28 | FIDQHRAALIARVTNVEWLLDALYGKVLTDEQYQAVRAEPTNPSKMRKLFSFTPAWNWTCCDLLLQALRESQSYLVEDLER [K61C] | -0.379 ± 0.089
29 | FIDQHRAALIARVTNVEWLLDALYGKVLTDEQYQAVRAEPTNPSKMRKLFSFTPAWNWTCDDLLLQALRESQSYLVEDLER [K61D] | -0.534 ± 0.19
30 | FIDQHRAALIARVTNVEWLLDALYGKVLTDEQYQAVRAEPTNPSKMRKLFSFTPAWNWTCEDLLLQALRESQSYLVEDLER [K61E] | -0.337 ± 0.089
31 | FIDQHRAALIARVTNVEWLLDALYGKVLTDEQYQAVRAEPTNPSKMRKLFSFTPAWNWTCFDLLLQALRESQSYLVEDLER [K61F] | 0.22 ± 0.16
32 | FIDQHRAALIARVTNVEWLLDALYGKVLTDEQYQAVRAEPTNPSKMRKLFSFTPAWNWTCGDLLLQALRESQSYLVEDLER [K61G] | -0.601 ± 0.064
33 | FIDQHRAALIARVTNVEWLLDALYGKVLTDEQYQAVRAEPTNPSKMRKLFSFTPAWNWTCHDLLLQALRESQSYLVEDLER [K61H] | 0.028 ± 0.1
34 | FIDQHRAALIARVTNVEWLLDALYGKVLTDEQYQAVRAEPTNPSKMRKLFSFTPAWNWTCIDLLLQALRESQSYLVEDLER [K61I] | -0.968 ± 0.23
